Molecular target: murine 103 gene product, transmembrane form, on the cell surface (murine) (UniProt P14719)
Assay: flow cytometry; digoxigenin-labelled 3E10 with anti-Dig-PE against CD4-FITC, on CD4+ T cells cultured with IL-4 + anti-IL-12 (TH2 conditions). This is the middle of three panels, between 5.2 % (after primary restimulation) and 41 % (after tertiary restimulation). [C) TH2, middle panel]

Sequence of UniProt P14719 (P14719 24-567): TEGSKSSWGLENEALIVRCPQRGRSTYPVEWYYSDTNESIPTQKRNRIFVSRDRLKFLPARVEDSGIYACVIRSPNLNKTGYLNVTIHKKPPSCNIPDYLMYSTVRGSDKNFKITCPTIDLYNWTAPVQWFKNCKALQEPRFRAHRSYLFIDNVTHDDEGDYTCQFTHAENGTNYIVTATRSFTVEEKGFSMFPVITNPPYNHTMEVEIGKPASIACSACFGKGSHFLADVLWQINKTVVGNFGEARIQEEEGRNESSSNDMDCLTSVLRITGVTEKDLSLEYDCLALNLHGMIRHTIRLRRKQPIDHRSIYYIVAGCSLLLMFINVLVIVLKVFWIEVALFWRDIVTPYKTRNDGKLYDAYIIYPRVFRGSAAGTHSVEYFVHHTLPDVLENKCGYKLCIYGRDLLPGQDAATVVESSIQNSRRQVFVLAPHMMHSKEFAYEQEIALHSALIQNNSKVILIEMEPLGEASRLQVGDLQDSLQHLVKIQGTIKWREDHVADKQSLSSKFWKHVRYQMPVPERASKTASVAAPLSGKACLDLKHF

% of cells in the upper right quadrant (3E10+ CD4+): 11.1%
Substance: 3E10 mAb (antibody)

Reference: US20020058800A1
